According to publication PMC9482650, “Quantitative fragmentomics allow affinity mapping of interactomes” (Nature Communications, 2022):

T1: RGS12, O14924
T1 sequence (O14924 17-108, limits assumed, looked up): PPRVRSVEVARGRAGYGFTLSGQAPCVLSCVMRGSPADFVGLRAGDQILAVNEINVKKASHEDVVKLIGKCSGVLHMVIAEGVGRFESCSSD

T2: CNKSR1, Q969H4
T2 sequence (Q969H4 191-295, limits assumed, looked up): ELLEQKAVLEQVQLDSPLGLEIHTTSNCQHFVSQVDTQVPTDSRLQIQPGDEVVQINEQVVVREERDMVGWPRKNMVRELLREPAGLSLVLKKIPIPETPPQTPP

T3: INTU, Q9ULD6
T3 sequence (Q9ULD6 180-273, limits assumed, looked up): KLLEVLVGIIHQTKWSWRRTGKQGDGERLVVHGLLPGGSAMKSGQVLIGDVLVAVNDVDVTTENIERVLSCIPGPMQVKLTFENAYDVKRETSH

T4: LNX2_1, Q8N448
T4 sequence (Q8N448 228-328, limits assumed, looked up): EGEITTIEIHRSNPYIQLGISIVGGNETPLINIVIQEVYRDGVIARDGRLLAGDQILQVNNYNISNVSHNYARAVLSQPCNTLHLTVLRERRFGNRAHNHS

B1: PBK, Q96KB5 (peptide)
chain: HIVEALETDV
B2: MERS-E, K9N5R3 (peptide)
chain: DSKPPLPPDEWV
B3: RPS6KA1, Q15418 (peptide)
chain: RRVRKLPSTTL
B4: ARHGEF16, Q5VV41 (peptide)
chain: MERLRVETDV
B5: CBP, Q92793 (peptide)
chain: TGDTLEKFVEGL
B6: ASIC3, Q9UHC3 (peptide)
chain: HRTCYLVTQL
B7: KCNA5, P22460 (peptide)
chain: CLDTSRETDL
B8: HPV51-E6, P26554 (peptide)
chain: RTRQRNETQV
B9: HTLV1-TAX1, P03409 (peptide)
chain: SEKHFRETEV
B10: PTEN, P60484 (peptide)
chain: DEDQHTQITKV
B11: MAP2K2, P36507 (peptide)
chain: QPGTPTRTAV

What was measured:
Experiment in all cases: holdup assay
Set-up in all cases: key: below the threshold = too weak to quantify, mostly under pKd 3.1 to 4
O00560 = settings: plain residues with an end cap or a label only (N-terminal biotin on a linker: ttds)
RGS12, O14924 = molecular target: T1, RGS12, O14924
Q96FS4 = settings: plain residues with an end cap or a label only (N-terminal biotin on a linker: ttds)
Q8IUC4 = settings: plain residues with an end cap or a label only (N-terminal biotin on a linker: ttds)
LIMK1, P53667 = molecular target: LIMK1, P53667
Q96JY6 = settings: plain residues with an end cap or a label only (N-terminal biotin on a linker: ttds)
Q9C0E4 = settings: plain residues with an end cap or a label only (N-terminal biotin on a linker: ttds)
Q9P227 = settings: plain residues with an end cap or a label only (N-terminal biotin on a linker: ttds)
Q5TCQ9 = settings: plain residues with an end cap or a label only (N-terminal biotin on a linker: ttds)
Q9UMS6 = settings: plain residues with an end cap or a label only (N-terminal biotin on a linker: ttds)
Q96HC4 = settings: plain residues with an end cap or a label only (N-terminal biotin on a linker: ttds)
Q13009 = settings: plain residues with an end cap or a label only (N-terminal biotin on a linker: ttds)
CNKSR1, Q969H4 = molecular target: T2, CNKSR1, Q969H4
O15021 = settings: plain residues with an end cap or a label only (N-terminal biotin on a linker: ttds)
O00233 = settings: plain residues with an end cap or a label only (N-terminal biotin on a linker: ttds)
INTU, Q9ULD6 = molecular target: T3, INTU, Q9ULD6
Q9UDY2 = settings: plain residues with an end cap or a label only (N-terminal biotin on a linker: ttds)
Q9NPB6 = settings: plain residues with an end cap or a label only (N-terminal biotin on a linker: ttds)
Q8TEW0 = settings: plain residues with an end cap or a label only (N-terminal biotin on a linker: ttds)
Q13368 = settings: plain residues with an end cap or a label only (N-terminal biotin on a linker: ttds)
LNX2_1, Q8N448 = molecular target: T4, LNX2_1, Q8N448
LNX1_4, Q8TBB1 = molecular target: LNX1_4, Q8TBB1
Q92614 = settings: plain residues with an end cap or a label only (N-terminal biotin on a linker: ttds)
Q8TB45 = settings: plain residues with an end cap or a label only (N-terminal biotin on a linker: ttds)
Q8TDM6 = settings: plain residues with an end cap or a label only (N-terminal biotin on a linker: ttds)
[1] = plain residues with an end cap or a label only (N-terminal biotin on a linker: ttds)
[2] = plain residues with an end cap or a label only (N-terminal biotin on a linker: none)

LNX1_4, Q8TBB1, sequence (Q8TBB1 631-726): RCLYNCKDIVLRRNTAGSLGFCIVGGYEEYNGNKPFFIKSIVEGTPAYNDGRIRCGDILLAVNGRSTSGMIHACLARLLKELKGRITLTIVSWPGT
LIMK1, P53667, sequence (P53667 155-268): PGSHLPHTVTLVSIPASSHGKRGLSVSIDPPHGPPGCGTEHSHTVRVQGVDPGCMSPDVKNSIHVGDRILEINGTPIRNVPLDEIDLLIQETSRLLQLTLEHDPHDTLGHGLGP

| Binder | pKd (O00560) | pKd (RGS12, O14924; [1]) | pKd (Q96FS4) | pKd (Q8IUC4) | pKd (LIMK1, P53667; [1]) | pKd (Q96JY6) | pKd (Q9C0E4) | pKd (Q9P227) | pKd (Q5TCQ9) | pKd (Q9UMS6) | pKd (Q96HC4) | pKd (Q13009) | pKd (CNKSR1, Q969H4; [1]) | pKd (O00233) | pKd (INTU, Q9ULD6; [1]) | pKd (Q9UDY2) | pKd (Q9NPB6) | pKd (Q8TEW0) | pKd (Q13368) | pKd (Q92614) | also measured |
| --- | --- | --- | --- | --- | --- | --- | --- | --- | --- | --- | --- | --- | --- | --- | --- | --- | --- | --- | --- | --- | --- |
| B1 | below the threshold | below the threshold | below the threshold | below the threshold | 4.63 | below the threshold | below the threshold | below the threshold | below the threshold | below the threshold | below the threshold | below the threshold | below the threshold | below the threshold | 4.9 | below the threshold | below the threshold | below the threshold | below the threshold |  | pKd (O15021): below the threshold |
| B2 |  |  |  |  |  |  |  |  |  |  |  |  |  |  |  |  |  |  |  |  | pKd (RGS12, O14924; [2]): below the threshold; pKd (LIMK1, P53667; [2]): below the threshold; pKd (CNKSR1, Q969H4; [2]): below the threshold; pKd (LNX2_1, Q8N448; [2]): 4.21; pKd (INTU, Q9ULD6; [2]): below the threshold; pKd (LNX1_4, Q8TBB1; [2]): below the threshold |
| B3 |  | 3.56 |  |  | below the threshold |  |  |  |  |  |  |  | below the threshold |  | below the threshold |  |  |  |  |  | pKd (LNX2_1, Q8N448; [1]): below the threshold; pKd (LNX1_4, Q8TBB1; [1]): below the threshold |
| B4 | below the threshold | below the threshold | below the threshold | below the threshold | below the threshold | below the threshold | below the threshold | below the threshold | below the threshold | below the threshold | below the threshold | below the threshold | 4.16 | below the threshold | 4.32 | below the threshold | below the threshold | below the threshold | below the threshold | below the threshold | pKd (O15021): below the threshold |
| B5 |  |  |  |  | below the threshold |  |  |  |  |  |  |  |  |  | below the threshold |  |  |  |  | below the threshold | pKd (LNX2_1, Q8N448; [1]): below the threshold; pKd (LNX1_4, Q8TBB1; [1]): 4.65 |
| B6 | below the threshold | 4.28 | below the threshold | below the threshold |  | below the threshold | below the threshold | below the threshold | below the threshold | below the threshold | below the threshold | below the threshold | below the threshold | below the threshold |  | below the threshold | below the threshold | below the threshold | below the threshold | below the threshold | pKd (O15021): below the threshold |
| B7 | below the threshold | below the threshold | below the threshold | below the threshold | 4.3 | below the threshold | below the threshold | below the threshold | below the threshold | below the threshold | below the threshold | below the threshold | below the threshold | below the threshold |  | below the threshold | below the threshold | below the threshold | below the threshold | below the threshold | pKd (O15021): below the threshold |
| B8 | below the threshold | below the threshold | below the threshold | below the threshold | below the threshold | below the threshold | below the threshold | below the threshold | below the threshold | below the threshold | below the threshold | below the threshold | 4.44 | below the threshold | below the threshold | below the threshold | below the threshold | below the threshold | below the threshold | below the threshold | pKd (Q8TB45): below the threshold; pKd (Q8TDM6): below the threshold |
| B9 |  |  |  |  |  |  |  |  |  |  |  |  |  |  | 3.8 |  |  |  |  |  | pKd (LNX2_1, Q8N448; [1]): below the threshold; pKd (LNX1_4, Q8TBB1; [1]): below the threshold |
| B10 |  |  |  |  | below the threshold |  |  |  |  |  |  |  |  |  | below the threshold |  |  |  |  |  | pKd (LNX2_1, Q8N448; [1]): below the threshold |
| B11 | below the threshold | below the threshold | below the threshold | below the threshold | 4.2 | below the threshold | below the threshold | below the threshold | below the threshold | below the threshold | below the threshold | below the threshold | 4.07 | below the threshold | below the threshold | below the threshold | below the threshold | below the threshold | below the threshold | below the threshold | pKd (O15021): below the threshold |
